Substrate: CCCCCCCCCCCCCCCC(=O)OCC
Experiment: release of fatty acid, substrate saturation, nonlinear regression
Assay type: biochemical, Saccharomyces cerevisiae
Conditions: CHAPS-emulsified substrate, Bistris propane, pH 7, 1 mM EDTA, 37 °C, 30 min

B1: His6-tagged Yju3p (Saccharomyces cerevisiae S288C) (protein)
chain: MAPYPYKVQTTVPELQYENFDGAKFGYMFWPVQNGTNEVRGRVLLIHGFGEYTKIQFRLMDHLSLNGYESFTFDQRGAGVTSPGRSKGVTDEYHVFNDLEHFVEKNLSECKAKGIPLFMWGHSMGGGICLNYACQGKHKNEISGYIGSGPLIILHPHTMYNKPTQIIAPLLAKFLPRVRIDTGLDLKGITSDKAYRAFLGSDPMSVPLYGSFRQIHDFMQRGAKLYKNENNYIQKNFAKDKPVIIMHGQDDTINDPKGSEKFIQDCPSADKELKLYPGARHSIFSLETDKVFNTVFNDMKQWLDKHTTTEAKP
notes: expression construct described previously (YJU3 for the GFP fusions was cloned from BY4742 genomic DNA)
B1 gave a Km of 780 µM.

— article PMC4882453, “Monoacylglycerol Lipases Act as Evolutionarily Conserved Regulators of Non-oxidative Ethanol Metabolism” (The Journal of Biological Chemistry, 2016)
